Reference: US7094599

Biological target: MHC class II antigen on the Raji B cell line
Assay: cell-based or functional assay

Which percent cytolysis of Raji (MHC class II+) cells by CTL expressing CD4:ζ does the source give for CD4:ζ (receptor) here?
Its percent cytolysis of Raji (MHC class II+) cells by CTL expressing CD4:ζ is 5%.
